Laboratory results reported in patent CN115991785A (SHANGHAI MIAOJU BIOTECHNOLOGY CO LTD; UNIV SHANGHAI JIAOTONG, dated 2023).

Experiments:
[1] = molecular target: T1, MATN3-Fc抗原 (MATN3-Fc antigen) (human, UniProt O15232 29-486, limits assumed); assay: SPR (Biacore, CM5 chip, amine coupling, 1:1 binding model)
T1 construct: not shown: Fc part
T1 sequence (looked up): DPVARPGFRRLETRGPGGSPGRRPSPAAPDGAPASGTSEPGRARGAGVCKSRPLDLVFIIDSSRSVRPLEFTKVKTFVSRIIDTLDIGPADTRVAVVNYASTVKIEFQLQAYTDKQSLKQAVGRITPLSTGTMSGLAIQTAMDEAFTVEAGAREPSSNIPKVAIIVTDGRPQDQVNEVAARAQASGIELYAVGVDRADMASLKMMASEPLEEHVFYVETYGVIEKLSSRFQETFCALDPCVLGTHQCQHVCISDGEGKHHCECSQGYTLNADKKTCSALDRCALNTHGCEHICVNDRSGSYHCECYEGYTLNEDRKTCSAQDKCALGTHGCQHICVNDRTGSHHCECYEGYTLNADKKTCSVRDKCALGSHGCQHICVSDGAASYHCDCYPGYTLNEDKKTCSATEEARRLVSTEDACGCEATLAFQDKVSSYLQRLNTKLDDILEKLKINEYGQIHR

[2] = molecular target: CD34-Fc抗原 (CD34-Fc antigen); assay: as above
Sequence of CD34-Fc抗原 (CD34-Fc antigen) (P28906 32-290): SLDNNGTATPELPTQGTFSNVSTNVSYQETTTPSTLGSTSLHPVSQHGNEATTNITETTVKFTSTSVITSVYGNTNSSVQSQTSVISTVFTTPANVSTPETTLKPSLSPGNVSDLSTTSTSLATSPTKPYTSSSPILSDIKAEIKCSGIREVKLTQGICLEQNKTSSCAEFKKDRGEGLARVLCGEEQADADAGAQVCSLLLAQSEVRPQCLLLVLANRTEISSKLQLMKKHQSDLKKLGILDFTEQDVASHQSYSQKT

B1: CD34×MATN3双特异性抗体 (CD34×MATN3 bispecific antibody, IgG1-scFv form) (bispecific antibody)
chain 1: EIQLQQSGPELMKPGASVKISCKASGYSFTSYYMHWVKQSQGKSLEWIGFIDPFNGGITYNQKFKGKATLTVDRSSSTAYMHLRSLTSEDSAVYYCARCYYNYDDEGRAMDYWGQGTSVTVSS
chain 2: DIQMTQSPSSLSASLGERVSLTCRASQDIGSSLNWLQQGPDGTFKRLIYATSSLDSSVPKRFSGSRSGSDYSLTISSLESEDFVDYYCLQYASSPYTFGGGTKLEIKR
chain 3: EVQLVQSGAEVKKPGASVKVSCKASGGTFSSYAISWVRQAPGQGLEWMGGIIPIFGTANYAQKFQGRVTITADKSTSTAYMELSSLRSEDTAVYYCARGQGYWFDPWGQGTLVTVSS
chain 4: DVQLTQSPSSLSASVGDRVTITCQASQDISNYLNWYQQKPGKAPKLLIYDASNLETGVPSRFSGSGSGTDFTFTISSLQPEDIATYYCQQYDNLPLTFGGGTKLEIKR
[1]
  Kd: 0.00895 nM
[2]
  Kd: 8.53 nM
